Experimental data: US20260125484A1 (GMAX BIOPHARM, published 2026)

T1: human endothelin receptor A (hETAR) (human, UniProt P25101 21-427)
T1 sequence: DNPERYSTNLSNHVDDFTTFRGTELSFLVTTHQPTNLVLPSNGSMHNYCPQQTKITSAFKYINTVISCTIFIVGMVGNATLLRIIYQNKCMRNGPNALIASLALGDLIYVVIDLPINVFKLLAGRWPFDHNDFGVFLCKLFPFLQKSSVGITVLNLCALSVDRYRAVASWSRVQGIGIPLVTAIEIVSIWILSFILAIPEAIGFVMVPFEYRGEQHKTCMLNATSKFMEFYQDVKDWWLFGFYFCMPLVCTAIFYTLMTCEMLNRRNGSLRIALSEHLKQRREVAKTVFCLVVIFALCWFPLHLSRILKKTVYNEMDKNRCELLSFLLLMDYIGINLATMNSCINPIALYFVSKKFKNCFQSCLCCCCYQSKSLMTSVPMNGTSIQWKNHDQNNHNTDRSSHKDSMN


Assays:
[1] = molecular target: T1, human endothelin receptor A (hETAR); assay: cell-based or functional assay
[2] = molecular target: T1, human endothelin receptor A (hETAR); assay: FACS on CHO-DHFR-ETAR cells
Experimental: 10⁵ CHO-DHFR-hETAR cells were digested and collected with PBS containing 10 mM EDTA, separately added into 1.5 mL EP tubes, the supernatant was discarded after centrifugation, and the negative control sample was resuspended in a flow loading buffer (PBS, 2% FBS). Positive treatment group cells in each tube were added with 200 μL of the antibody supernatant, and incubated at room temperature; after the completion of the incubation, the cells were centrifuged at 1500 rpm, the supernatant was discarded, the cell precipitate was washed once with a flow loading buffer, and centrifuged again, and the cells were resuspended; 1:50 diluted FITC labeled goat anti-mouse fluorescent secondary antibody (BD Pharmingen) was added to the cell resuspension solution at 200 μL/well, and the cells were incubated at room temperature for 30 min in the dark; and the cells were centrifuged, the supernatant was discarded, the cell was washed once with a flow loading buffer, and centrifuged, the cell precipitate was resuspended with a flow loading buffer for on-machine detection. The supernatant expressing recombinant anti-ETAR functional antibody was specifically bound to CHO-DHFR-ETAR cells expressing ETAR. The gray peaks and dotted line peaks were negative controls; and the solid line peak corresponding to the hybridoma cell supernatant shifted obviously to the right.

Binder | IC50, calcium flux inhibition curve [1] [nM] | binding result [2]
ETAR antibody A-9 (antibody, mouse IgG1, V domains shown) VH: EVQLQQPGGGLVQPGGSLTLSCATSGFTFSSYGMSWVRQTPAKRLELVATISTNGATANYPDSVKGRFTISRDNAKSTLYLQMRSLKSEDTAMYYCATEKGAMGYWGQGTSVTVSS VL: DVLMTQTPLSLPVSLGDQASISCRSSQNIVHSTGNTYLEWYLQKPGQSPKLLIYKVSNRFSGVPNRFRGSGSGTDFTLKITRVEAEDLGIYYCFQGSHFPFTFGSGTKLEIKR | 88 | 
ETAR antibody A-2 (antibody, mouse IgG1, V domains shown, also called L2H2) VH: QIQLVQSGAELAKPGASVRMSCETSGYTFTSYWIHWIKERPGQGLEWIGYINPDTDYSEYNQKFKDKARLTADKSSTTAYMELNSLTFDDSAVYYCASAGYYFFDFWGQGTTLTVSS VL: DIQMTQSPASLSTSVGETVTITCRASENIYSYLAWYQQRQGKSPHLLVNNAKTLAEGVPSRFSGSGSGTHFSLRISGLQPEDFGSYYCQHHYGIPFTFGGGTKLSIKR |  | binds
ETAR antibody A-7 (antibody, mouse IgG1, V domains shown, also called L7H7) VH: EVHLVESGGGLVQPGGSLKLSCAASGFTFSTYGMSWVRQTPDKRLELVATINTNGGTTYYRDSVKGRFTISRDNAKNTLYLQMSSLKSDDTAMYYCARDYGAMDYWGQGTSVTVSS VL: DVLMTQTPLSLPVSLGDHASISCRSSQYIVHSTGTTYLEWYLQKPGQSPQLLIYKVSNRFSGVPDRFTGSGSGTDFTLRISRVEAEDLGVYFCFQGSHFPFTFGSGTKLEIKR |  | binds
ETAR antibody A-12 (antibody, mouse IgG1, V domains shown, also called L12H12) VH: EVKLVESGGRLVQPGNSLRLSCATSGFTFSDYYMSWVRQTPGRALEWLSFIRNRANGYTTEYSASVKGRFTISRDNSQSILYLHMSTLRPEDSATYYCVRDSYHYGYFDVWGAGTTVTVSS VL: EIQMTQTPSSLSASLGDRVTITCSASQGINNYLNWYQQKPGGKTRLLIYYTSTLQSGVPSRFSGSGSGTHYSLTISNLEPEDIATYYCQQFSKLRTFGGGTRLEIKR |  | binds
